Data on six molecules can be found in patent US8623997B2, “Variant Hhip1 protein and methods and uses thereof” (Curis, Inc., priority 2008, dated 2014).

One assay deals with Hh signaling. Nature of the assay: S12 Gli luciferase assay, activation of Hh signaling. Format: cell-based, murine. The following applies: octylated Ihh wildtype and T154I proteins. The procedure: (§1) Shh649 (1 nM) preincubated with indicated proteins was bound to Ptch1 expressing cells, washed and analyzed by FACS. The average mean Shh649 fluorescence intensity (MFI) of two independent dilution series was plotted versus inhibitor concentration, with error bars denoting standard deviations. […] Assays were carried out using octylated Ihh wildtype and T154I proteins. Concentration dependent relative luciferase units (RLU) are plotted as the average of four independent dilution series±standard deviation and normalized to the maximal Ihh WT stimulation on each plate as 100%. […] The data is representative of three independent experiments.
Briefly, S12 cells, which are 10T1/2 fibroblasts stably transfected with 8× Gli-binding sites fused to a luciferase reporter (Frank-Kamenetsky et al. (2002) J. Biol. 1:10), were plated at 10,000 cells/well of a white-walled clear bottomed 96-well plate (Costar 3610) for 48 hrs in regular growth medium (HG-DMEM, 10% FBS, 1% glutamine). After 24 h, the media was removed and Shh-producing HT29 cells at 20,000 cells/well were plated and the co-culture was grown in regular media. […] Gli-luciferase activity was measured using a HTS-Steady Lite luciferase detection kit (Perkin Elmer); multiple assays were carried out, each in triplicate. […]

Another assay has as its system Ptch1. Nature of the assay: FACS assay of Shh649 binding to Ptch1 expressing 293 cells and its competition. On the set-up: species or system human. The protocol: as §1
Shh is in the same orientation as in the Hhip-Shh complex in Panel A. Zn^2+ and Ca^2+ cations are shown. […] Surface representation of Shh with residues within 4.5 Å of Hhip (shaded gray) and Cdon (hatched areas). Area within dotted boarder indicates the boundaries of the Cdon footprint, which overlaps the Hhip binding surface. […] Shh histidine residues are shown as sticks with nitrogen atoms shaded dark. The Hhip L2 loop is shown in transparent surface and Zn^2+ cation is shown. Histidine 35 is not shown since the ordered portion of the Shh structure begins at L40. […] The spectral region of the histidine side chains is shown. […] The average mean Shh649 fluorescence intensity (MFI) of two independent dilution series was plotted versus protein concentration, with error bars denoting standard deviations. Ctrl refers to the His-6 (SEQ ID NO: 87) tagged HGF β protein. […] Shh649 (0.33 nM) was preincubated with 56 nM (170-fold excess) of Hhipβ12 wildtype or L2 mutant proteins, 5E1 or controls then bound to Ptch1 cells (black) or 293 cells (gray), washed and analyzed by FACS. Shh649 binding to Ptch1 cells in the absence of inhibitors was normalized to 100% and the data expressed as a percentage of this signal (average of two independent duplicates with standard deviations). Ctrl and CtrlFc refer to HGF β and the IgG1 isotype control Trastuzumab, respectively. The data is representative of at least three independent experiments.
Shh649, conjugated to Dylight 649 (Pierce) at its C-terminus (vide supra), was incubated at 0.33 or 1 nM for 1 h on ice with various Hhip or control proteins prior to incubation with HEK-293 cells (293) or 293 cells expressing full length human Patched-1 (Ptch1-293 clone 10) (Carpenter D. et al. (1998) Proc. Natl. Acad. Sci. USA 95:13630-13634) in FACS buffer (3% FBS in PBS) for 1 h on ice. After washing 3 times in FACS buffer, live cells (sorted by propidium iodide exclusion) were analyzed by flow cytometry in the APC channel using a FACSCalibur (BD Biosciences). Control proteins included His6-Shh, His6-Ihh, HGF β-His639, Trastuzumab (Genentech, Inc.) as a human IgG1 isotype control for Hhip1β12-Fc, and mIgG1 (Molecular Probes Z25105) as a murine Mab control for anti-Shh 5E1 Mab34.
For orientation: In flow cytometry, cells or beads pass a laser one at a time.

In another assay the test system is Shh signaling. Nature of the assay: Gli-luciferase co-culture signaling assay (S12 fibroblasts overlaid with Shh-producing HT29 cells). It counts as cell-based, murine S12 fibroblasts / human HT29 cells. The conditions noted are these: for maximal inhibition: at saturating conditions. From the text: Due to the lack of both N- and C-terminal lipid modifications of Shh and the absence of other cellular components, the in vitro assays may not fully recapitulate Hip-Shh interactions occurring in a cellular environment. Therefore, a co-culture assay consisting of murine S12 fibroblasts stably transfected with a Gli luciferase reporter gene and (Frank-Kamenetsky et al. (2002) J. Biol. 1:10) and human colorectal adenocarcinoma HT29 cells that secrete fully lipid-modified Shh (Yauch et al. (2008) Nature 455:406) was used to determine which extracellular domains of Hhip1β12 mediate inhibition of Shh signaling in mammalian cells.
Briefly, S12 cells, which are 10T1/2 fibroblasts stably transfected with 8× Gli-binding sites fused to a luciferase reporter (Frank-Kamenetsky et al. (2002) J. Biol. 1:10), were plated at 10,000 cells/well of a white-walled clear bottomed 96-well plate (Costar 3610) for […] in regular growth medium (HG-DMEM, 10% FBS, 1% glutamine). After 24 h, the media was removed and Shh-producing HT29 cells at 20,000 cells/well were plated and the co-culture was grown in regular media. After 24 h, the media was changed to 0.5% serum HG-DMEM±Hhip1β12 fragments and further incubated for 24 hrs to stimulate signaling. Gli-luciferase activity was measured using a HTS-Steady Lite luciferase detection kit (Perkin Elmer); multiple assays were carried out, each in triplicate. Data were fit to a 4-parameter sigmoidal equation, from which the IC50 was derived using Kaleidagraph (Synergy Software).

Another assay deals with T1, biotinylated-ShhN-Cys (Homo sapiens, UniProt Q15465).
T1 construct: ShhN-Cys (residues 24-197); His6 (N); made in house; host or cells: E. coli Rosetta 2
Nature of the assay: Bio-layer interferometry (Octet) binding kinetics of Hhip1β12 variants to Shh. The conditions noted are these: for Shh binding of Hhip1β12 mutants (in words): bio-layer interferometry, compared with WT Hhip1β12. The procedure: The binding kinetics of the Hhip1β12 fragments as well as Hhip1β12 mutants were measured by bio-layer interferometry in the presence or absence of 10 mM EDTA on an Octet (Fortébio). Streptavidin high binding FA biosensors were loaded with biotinylated-ShhN-Cys in kinetic buffer (Fortébio). The loaded biosensors were washed and transferred to wells containing Hhip1β12 protein at concentrations of 1.2, 1.0, 0.8 and 0.6 μM in kinetic buffer. Hhip1β12 association and dissociation was measured for 30 and 20 min, respectively. Kinetic parameters (kon and koff) and affinities (KD) were calculated from a non-linear fit of the data based on a 1:1 binding model between Hhip1β12 and Shh using the Octet software. Multiple independent measurements were performed.
In order to assess the contribution of residues in the Hhip1 L1, L2 and L3 loops for binding to Shh, a series of single alanine Hipβ12 mutants were made using the QuickChange DNA mutagenesis kit (Stratagene) using the manufacturer's protocol, and their affinity for Shh was measured by bio-layer interferometry (as described in Example 2B). These mutations included Hhip1β12 mutants 1312A, E381A, M382A, D383A, D378A, T418A, Q420A, E380A, D387A and ΔL2.
On the technique in general: BLI is a label-free optical method that tracks binding on a fibre tip over time.

Setting [1] is: 1:1 binding model, n.d stands for no binding detected.

Turning to “Ihh: human Indian Hedgehog, residues 29-202”, at Hh signaling, the concentration for a half-maximal effect (EC50) was 0.016 µM. Besides, the “competition of Shh649 binding to Ptch1 cells (in words)” value (from here on “competition of Shh649 binding”) in the assay with Ptch1 is recorded as “dose dependent manner”.
For “T154I: type A1 brachydactyly mutant Ihh T154I”, the EC50 at Hh signaling was found to be 0.33 µM.

B1: D383A: L2 loop single alanine variant made in the Hhip1β12 construct (protein)
chain: SNYLDQMEEYDKVEEISRKHKHNCFCIQEVVSGLRQPVGALHSGDGSQRLFILEKEGYVKILTPEGEIFKEPYLDIHKLVQSGIKGGDERGLLSLAFHPNYKKNGKLYVSYTTNQERWAIGPHDHILRVVEYTVSRKNPHQVDLRTARVFLEVAELHRKHLGGQLLFGPDGFLYIILGDGMITLDDMEEMAGLSDFTGSVLRLDVDTDMCNVPYSIPRSNPHFNSTNQPPEVFAHGLHDPGRCAVDRHPTDININLTILCSDSNGKNRSSARILQIIKGKDYESEPSLLEFKPFSNGPLVGGFVYRGCQSERLYGSYVFGDRNGNFLTLQQSPVTKQWQEKPLCLGTSGSCRGYFSGHILGFGEDELGEVYILSSSKSMTQTHNGKLYKIVDPKRPLMPEECRATVQPAQTLTSECSRLCRNGYCTPTGKCCCSPGWEGDFCRTAKCEPACRHGGVCVRPNKCLCKKGYLGPQCEHHHHHH
Consider B1, for which, in the assay with Shh signaling (Gli-luciferase co-culture), the “inhibitory activity (in words)” value is on record as “retained activity”. The maximal inhibition in the assay on Shh signaling was about 85%. Also, the “Shh binding of Hhip1β12 mutants (in words)” value (from here on “Shh binding”) with biotinylated-ShhN-Cys is reported as “inability”.

B2: I312A: L1 loop single alanine variant made in the Hhip1β12 construct (protein)
chain: SNYLDQMEEYDKVEEISRKHKHNCFCIQEVVSGLRQPVGALHSGDGSQRLFILEKEGYVKILTPEGEIFKEPYLDIHKLVQSGIKGGDERGLLSLAFHPNYKKNGKLYVSYTTNQERWAAGPHDHILRVVEYTVSRKNPHQVDLRTARVFLEVAELHRKHLGGQLLFGPDGFLYIILGDGMITLDDMEEMDGLSDFTGSVLRLDVDTDMCNVPYSIPRSNPHFNSTNQPPEVFAHGLHDPGRCAVDRHPTDININLTILCSDSNGKNRSSARILQIIKGKDYESEPSLLEFKPFSNGPLVGGFVYRGCQSERLYGSYVFGDRNGNFLTLQQSPVTKQWQEKPLCLGTSGSCRGYFSGHILGFGEDELGEVYILSSSKSMTQTHNGKLYKIVDPKRPLMPEECRATVQPAQTLTSECSRLCRNGYCTPTGKCCCSPGWEGDFCRTAKCEPACRHGGVCVRPNKCLCKKGYLGPQCEHHHHHH
For the molecule B2, the “inhibitory activity (in words)” value with Shh signaling (Gli-luciferase co-culture) is “essentially identical to wildtype Hhip1β12”. Further, in the assay with biotinylated-ShhN-Cys (setting [1]), binding was characterised by a dissociation constant (Kd) of 0.32 µM, the “koff × 10^−4” value is 4.8 × 10^−4 [s^−1] and the “kon × 10^3” value is 1.5 × 10^3 [M^−1 × s^−1]. Further, the “Shh binding” value with biotinylated-ShhN-Cys (listed as 1312A) is reported as “little effect on Shh”.

B3: D383R: Hhip L2 mutant of Hhip1β12 with D383 changed to R (protein)
chain: MLKMLSFKLLLLAVALGFFEGDAKFGERNEGSGARRRRCLNGNPPKRLKRRDRRMMSQLELLSGGEMLCGGFYPRLSCCLRSDSPGLGRLENKIFSVTNNTECGKLLEEIKCALCSPHSQSLFHSPEREVLERDLVLPLLCKDYCKEFFYTCRGHIPGFLQTTADEFCFYYARKDGGLCFPDFPRKQVRGPASNYLDQMEEYDKVEEISRKHKHNCFCIQEVVSGLRQPVGALHSGDGSQRLFILEKEGYVKILTPEGEIFKEPYLDIHKLVQSGIKGGDERGLLSLAFHPNYKKNGKLYVSYTTNQERWAIGPHDHILRVVEYTVSRKNPHQVDLRTARVFLEVAELHRKHLGGQLLFGPDGFLYIILGDGMITLDDMEEMRGLSDFTGSVLRLDVDTDMCNVPYSIPRSNPHFNSTNQPPEVFAHGLHDPGRCAVDRHPTDININLTILCSDSNGKNRSSARILQIIKGKDYESEPSLLEFKPFSNGPLVGGFVYRGCQSERLYGSYVFGDRNGNFLTLQQSPVTKQWQEKPLCLGTSGSCRGYFSGHILGFGEDELGEVYILSSSKSMTQTHNGKLYKIVDPKRPLMPEECRATVQPAQTLTSECSRLCRNGYCTPTGKCCCSPGWEGDFCRTAKCEPACRHGGVCVRPNKCLCKKGYLGPQCEQVDRNIRRVTRAGILDQIIDMTSYLLDLTSYIV
For the molecule B3, in the assay on Shh signaling (Gli-luciferase co-culture), the “IC50 fold change versus wildtype Hipβ12” value is recorded as about 13 fold. Also, in the assay on Shh signaling (Gli-luciferase co-culture, 24 hrs, read-out: IC50 inhibition of Shh signaling), the half-maximal inhibitory concentration (IC50) is 0.057 µM. Moreover, in the assay on Shh signaling, the maximal inhibition is reported as about 50%. Besides, the “competition of Shh649 binding” value with Ptch1 is recorded as “no inhibition”. The “Shh binding” value with biotinylated-ShhN-Cys is given as “inability”.

B4: Hhip1ΔL2: Hhip1β12 mutant with deletion of the entire L2 loop (protein)
chain: SNYLDQMEEYDKVEEISRKHKHNCFCIQEVVSGLRQPVGALHSGDGSQRLFILEKEGYVKILTPEGEIFKEPYLDIHKLVQSGIKGGDERGLLSLAFHPNYKKNGKLYVSYTTNQERWAIGPHDHILRVVEYTVSRKNPHQVDLRTARVFLEVAELHRKHLGGQLLFGPDGFLYIILGDGMITTGSVLRLDVDTDMCNVPYSIPRSNPHFNSTNQPPEVFAHGLHDPGRCAVDRHPTDININLTILCSDSNGKNRSSARILQIIKGKDYESEPSLLEFKPFSNGPLVGGFVYRGCQSERLYGSYVFGDRNGNFLTLQQSPVTKQWQEKPLCLGTSGSCRGYFSGHILGFGEDELGEVYILSSSKSMTQTHNGKLYKIVDPKRPLMPEECRATVQPAQTLTSECSRLCRNGYCTPTGKCCCSPGWEGDFCRTAKCEPACRHGGVCVRPNKCLCKKGYLGPQCEHHHHHH
In the case of B4, the “inhibitory activity (in words)” value in the assay on Shh signaling (Gli-luciferase co-culture) is on record as “no inhibitory activity”. For the same molecule, the “competition of Shh649 binding” value in the assay with Ptch1 is “no inhibition”. The “Shh binding” value with biotinylated-ShhN-Cys was “abrogated binding to Shh”.

For orientation: EC50 means the concentration at which the effect is half-maximal. As usually defined, the Kd is the constant that tells how readily two partners part at equilibrium. A higher Kd goes with weaker binding. As a reminder, the IC50 is the concentration that inhibits the measured activity by half.
